From article doi:10.1101/854158 (bioRxiv, 2019)

T1: FANCC (human, UniProt Q00597 1-558)
T1 sequence: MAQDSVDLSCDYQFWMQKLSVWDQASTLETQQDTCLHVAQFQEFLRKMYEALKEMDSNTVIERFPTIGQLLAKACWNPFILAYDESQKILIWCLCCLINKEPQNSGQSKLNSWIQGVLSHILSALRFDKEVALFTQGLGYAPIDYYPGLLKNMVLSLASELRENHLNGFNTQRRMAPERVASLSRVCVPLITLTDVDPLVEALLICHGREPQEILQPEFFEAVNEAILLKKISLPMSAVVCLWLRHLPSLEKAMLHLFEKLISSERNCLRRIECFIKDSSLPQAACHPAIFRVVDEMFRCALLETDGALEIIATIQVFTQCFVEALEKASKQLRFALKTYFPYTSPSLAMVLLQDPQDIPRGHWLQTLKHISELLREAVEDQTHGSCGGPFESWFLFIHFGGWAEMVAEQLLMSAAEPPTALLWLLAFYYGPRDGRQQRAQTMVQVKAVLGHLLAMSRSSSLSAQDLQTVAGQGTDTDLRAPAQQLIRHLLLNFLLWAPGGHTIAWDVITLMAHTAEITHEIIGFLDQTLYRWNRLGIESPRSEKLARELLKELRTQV

B1: FAAP100 (natural protein)
chain: MAGAAPRVRYLAGFCCPLGGLAAGKPRVLCHEAEVFLSTGSELVYVYDQEGGLLTAAFRFPDQVWHLELLAPRRLLYALCARRGLYCLSLDHPGRSRSTSQDDRDSEDGDQPSPVIPVDPDACILPDAALCAFTLLDSVLVTLVQGPARWKMQLFEQPCPGEDPRPGGQIGEVELSSYTPPAGVPGKPAAPHFLPVLCSVSPSGSRVPHDLLGGSGGFTLEDALFGLLFGADATLLQSPVVLCGLPDGQLCCVILKALVTSRSAPGDPNALVKILHHLEEPVIFIGALKTEPQAAEAAENFLPDEDVHCDCLVAFGHHGRMLAIKASWDESGKLVPELREYCLPGPVLCAACGGGGRVYHSTPSDLCVVDLSRGSTPLGPEQPEEGPGGLPPMLCPASLNICSVVSLSASPRTHEGGTKLLALSAKGRLMTCSLDLDSEMPGPARMTTESAGQKIKELLSGIGNISERVSFLKKAVDQRNKALTSLNEAMNVSCALLSSGTGPRPISCTTSTTWSRLQTQDVLMATCVLENSSSFSLDQGWTLCIQVLTSSCALDLDSACSAITYTIPVDQLGPGARREVTLPLGPGENGGLDLPVTVSCTLFYSLREVVGGALAPSDSEDPFLDECPSDVLPEQEGVCLPLSRHTVDMLQCLRFPGLAPPHTRAPSPLGPTRDPVATFLETCREPGSQPAGPASLRAEYLPPSVASIKVSAELLRAALKDGHSGVPLCCATLQWLLAENAAVDVVRARALSSIQGVAPDGANVHLIVREVAMTDLCPAGPIQAVEIQVESSSLADICRAHHAVVGRMQTMVTEQATQGSSAPDLRVQYLRQIHANHETLLREVQTLRDRLCTEDEASSCATAQRLLQVYRQLRHPSLILL
B2: FANCE (natural protein)
chain: MATPDAGLPGAEGVEPAPWAQLEAPARLLLQALQAGPEGARRGLGVLRALGSRGWEPFDWGRLLEALCREEPVVQGPDGRLELKPLLLRLPRICQRNLMSLLMAVRPSLPESGLLSVLQIAQQDLAPDPDAWLRALGELLRRDLGVGTSMEGASPLSERCQRQLQSLCRGLGLGGRRLKSPQAPDPEEEENRDSQQPGKRRKDSEEEAASPEGKRVPKRLRCWEEEEDHEKERPEHKSLESLADGGSASPIKDQPVMAVKTGEDGSNLDDAKGLAESLELPKAIQDQLPRLQQLLKTLEEGLEGLEDAPPVELQLLHECSPSQMDLLCAQLQLPQLSDLGLLRLCTWLLALSPDLSLSNATVLTRSLFLGRILSLTSSASRLLTTALTSFCAKYTYPVCSALLDPVLQAPGTGPAQTELLCCLVKMESLEPDAQVLMLGQILELPWKEETFLVLQSLLERQVEMTPEKFSVLMEKLCKKGLAATTSMAYAKLMLTVMTKYQANITETQRLGLAMALEPNTTFLRKSLKAALKHLGP
B3: FANCB (natural protein)
chain: MTSKQAMSSNEQERLLCYNGEVLVFQLSKGNFADKEPTKTPILHVRRMVFDRGTKVFVQKSTGFFTIKEENSHLKIMCCNCVSDFRTGINLPYIVIEKNKKNNVFEYFLLILHSTNKFEMRLSFKLGYEMKDGLRVLNGPLILWRHVKAFFFISSQTGKVVSVSGNFSSIQWAGEIENLGMVLLGLKECCLSEEECTQEPSKSDYAIWNTKFCVYSLESQEVLSDIYIIPPAYSSVVTYVHICATEIIKNQLRISLIALTRKNQLISFQNGTPKNVCQLPFGDPCAVQLMDSGGGNLFFVVSFISNNACAVWKESFQVAAKWEKLSLVLIDDFIGSGTEQVLLLFKDSLNSDCLTSFKITDLGKINYSSEPSDCNEDDLFEDKQENRYLVVPPLETGLKVCFSSFRELRQHLLLKEKIISKSYKALINLVQGKDDNTSSAEEKECLVPLCGEEENSVHILDEKLSDNFQDSEQLVEKIWYRVIDDSLVVGVKTTSSLKLSLNDVTLSLLMDQAHDSRFRLLKCQNRVIKLSTNPFPAPYLMPCEIGLEAKRVTLTPDSKKEESFVCEHPSKKECVQIITAVTSLSPLLTFSKFCCTVLLQIMERESGNCPKDRYVVCGRVFLSLEDLSTGKYLLTFPKKKPIEHMEDLFALLAAFHKSCFQITSPGYALNSMKVWLLEHMKCEIIKEFPEVYFCERPGSFYGTLFTWKQRTPFEGILIIYSRNQTVMFQCLHNLIRILPINCFLKNLKSGSENFLIDNMAFTLEKELVTLSSLSSAIAKHESNFMQRCEVSKGKSSVVAAALSDRRENIHPYRKELQREKKKMLQTNLKVSGALYREITLKVAEVQLKSDFAAQKLSNL
B4: FANCA (natural protein)
chain: MSDSWVPNSASGQDPGGRRRAWAELLAGRVKREKYNPERAQKLKESAVRLLRSHQDLNALLLEVEGPLCKKLSLSKVIDCDSSEAYANHSSSFIGSALQDQASRLGVPVGILSAGMVASSVGQICTAPAETSHPVLLTVEQRKKLSSLLEFAQYLLAHSMFSRLSFCQELWKIQSSLLLEAVWHLHVQGIVSLQELLESHPDMHAVGSWLFRNLCCLCEQMEASCQHADVARAMLSDFVQMFVLRGFQKNSDLRRTVEPEKMPQVTVDVLQRMLIFALDALAAGVQEESSTHKIVRCWFGVFSGHTLGSVISTDPLKRFFSHTLTQILTHSPVLKASDAVQMQREWSFARTHPLLTSLYRRLFVMLSAEELVGHLQEVLETQEVHWQRVLSFVSALVVCFPEAQQLLEDWVARLMAQAFESCQLDSMVTAFLVVRQAALEGPSAFLSYADWFKASFGSTRGYHGCSKKALVFLFTFLSELVPFESPRYLQVHILHPPLVPGKYRSLLTDYISLAKTRLADLKVSIENMGLYEDLSSAGDITEPHSQALQDVEKAIMVFEHTGNIPVTVMEASIFRRPYYVSHFLPALLTPRVLPKVPDSRVAFIESLKRADKIPPSLYSTYCQACSAAEEKPEDAALGVRAEPNSAEEPLGQLTAALGELRASMTDPSQRDVISAQVAVISERLRAVLGHNEDDSSVEISKIQLSINTPRLEPREHMAVDLLLTSFCQNLMAASSVAPPERQGPWAALFVRTMCGRVLPAVLTRLCQLLRHQGPSLSAPHVLGLAALAVHLGESRSALPEVDVGPPAPGAGLPVPALFDSLLTCRTRDSLFFCLKFCTAAISYSLCKFSSQSRDTLCSCLSPGLIKKFQFLMFRLFSEARQPLSEEDVASLSWRPLHLPSADWQRAALSLWTHRTFREVLKEEDVHLTYQDWLHLELEIQPEADALSDTERQDFHQWAIHEHFLPESSASGGCDGDLQAACTILVNALMDFHQSSRSYDHSENSDLVFGGRTGNEDIISRLQEMVADLELQQDLIVPLGHTPSQEHFLFEIFRRRLQALTSGWSVAASLQRQRELLMYKRILLRLPSSVLCGSSFQAEQPITARCEQFFHLVNSEMRNFCSHGGALTQDITAHFFRGLLNACLRSRDPSLMVDFILAKCQTKCPLILTSALVWWPSLEPVLLCRWRRHCQSPLPRELQKLQEGRQFASDFLSPEAASPAPNPDWLSAAALHFAIQQVREENIRKQLKKLDCEREELLVFLFFFSLMGLLSSHLTSNSTTDLPKAFHVCAAILECLEKRKISWLALFQLTESDLRLGRLLLRVAPDQHTRLLPFAFYSLLSYFHEDAAIREEAFLHVAVDMYLKLVQLFVAGDTSTVSPPAGRSLELKGQGNPVELITKARLFLLQLIPRCPKKSFSHVAELLADRGDCDPEVSAALQSRQQAAPDADLSQEPHLF

Tests used:
Experiment in all cases: cryo-EM structure
FANCA = biological target: B4
FANCC = biological target: T1, FANCC
cryo-EM structure = biological target: the molecule itself

Binder: B1
binding result (FANCA): binds

Binder: B2
binding result (FANCC): binds

Binder: B3
binding result (cryo-EM structure): binds
binding result (FANCA): binds

Binder: B4
stoichiometry N (cryo-EM structure): 2
